{"source": "patent US20050164906A1", "about": "(APPLIED RESEARCH SYSTEMS ARS HOLDING N V, published 2005)", "key": {"[1]": {"molecular_target": "T1, GST alone (Glutathione S-transferase, control) (UniProt P08515 1-218 = GST)", "T1 construct": "Control loaded on glutathione Sepharose beads; also called GST-protein alone", "experiment": "GST pull-down of in vitro 35S-labeled protein"}, "[2]": {"molecular_target": "T2, GST-Raf-RBD, GST fusion protein comprising the Ras Binding Domain of human Raf (Raf-RBD, residues 1-149) (human, UniProt P04049 1-149)", "T2 construct": "range 1-149; Immobilised on glutathione Sepharose beads; not shown: Glutathione S-transferase (GST) encoded by the pGEX-4T2 plasmid (Pharmacia)", "experiment": "GST pull-down of in vitro 35S-labeled protein"}, "[3]": {"molecular_target": "T3, ERK-1 in lysates of murine thymocytes (mouse, UniProt Q63844 2-380)", "T3 construct": "Detected together with ERK-2 by α-ERK-1/-2 antibodies; also called ERK-1/-2", "T3 sequence (Q63844 2-380 limits assumed)": "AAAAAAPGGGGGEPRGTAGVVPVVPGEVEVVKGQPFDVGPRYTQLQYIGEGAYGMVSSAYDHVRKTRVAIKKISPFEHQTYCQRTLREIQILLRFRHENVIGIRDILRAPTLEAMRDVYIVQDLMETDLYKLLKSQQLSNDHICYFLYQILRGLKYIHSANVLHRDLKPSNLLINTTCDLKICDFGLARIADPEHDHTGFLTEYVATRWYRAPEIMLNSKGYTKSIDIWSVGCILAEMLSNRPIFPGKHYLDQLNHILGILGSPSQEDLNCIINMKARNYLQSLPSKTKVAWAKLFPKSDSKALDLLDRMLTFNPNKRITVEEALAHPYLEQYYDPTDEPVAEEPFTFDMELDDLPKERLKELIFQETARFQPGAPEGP", "experiment": "GST pull-down from murine thymocyte lysates, Western blot with α-ERK-1/-2", "experimental": "(§1) Extracts were prepared from the indicated cell, treated or untreated with DEX (10 microMolar), as previously described (Ayroldi E et al., 2001). GST or GST fusion proteins, loaded on Sepharose beads, were mixed with cell extracts in binding buffer (NaCl 250 milliMolar, HEPES (ph7.5) (pH 7.5) 50 milliMolar, EDTA 0.5 milliMolar, Nonidet P-40 0.1% (v/v), phenylmethylsulfonyl fluoride (PMSF) 0.2 milliMolar, dithiothreitol (DTT) 1 milliMolar, bovine serum albumin (BSA) 100 μg/ml), heated for 5 minutes at 42° C., incubated for 2 hours at 4° C., washed extensively with binding buffer, resuspended in loading buffer and analysed by SDS-PAGE and Western blot as described above. In the case of murine thymocytes extracts, the incubation with the beads was performed overnight and at 4° C. The α-MEK and α-ERK antibodies (Upstate Biotechnology) were used following manufacturer's instructions."}, "[4]": {"molecular_target": "T4, ERK-2 in lysates of murine thymocytes (mouse, UniProt P63085 2-358)", "T4 construct": "Detected together with ERK-1 by α-ERK-1/-2 antibodies; also called ERK-1/-2", "experiment": "GST pull-down from murine thymocyte lysates, Western blot with α-ERK-1/-2", "experimental": "as §1"}, "[5]": {"molecular_target": "T5, N87A-GILZ, full mouse GILZ in which an Asparagine is mutated in Alanine, in vitro 35S-labeled (mouse, UniProt Q9Z2S7 1-137, [35S]-Methionine label)", "T5 construct": "range 1-137", "T5 sequence (looked up)": "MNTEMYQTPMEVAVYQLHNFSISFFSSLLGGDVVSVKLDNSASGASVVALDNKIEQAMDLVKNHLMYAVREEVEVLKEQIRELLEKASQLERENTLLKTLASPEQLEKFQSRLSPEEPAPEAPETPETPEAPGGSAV", "experiment": "GST pull-down of in vitro 35S-labeled protein"}, "[6]": {"molecular_target": "T1, GST alone (Glutathione S-transferase, …)", "experiment": "GST pull-down from thymocyte whole cell lysates, Western blot with α-GILZ", "experimental": "as §1"}}, "data": [{"binder": "ΔC-GILZ, GILZ lacking the C-terminal region (first 97 amino acids of mouse GILZ), in vitro 35S-labeled (other, [35S]-methionine isotopic label from in vitro translation; letters unchanged, also called 35S-AC-GILZ) MNTEMYQTPMEVAVYQLHNFSTSFFSSLLGGDVVSVKLDNSASGASVVALDNKIEQAMDLVKNHLMYAVREEVEVLKEQIRELLEKNSQLERENTLL", "values": [{"measurement": "binding result", "setting": "[1]", "value": "no binding"}]}, {"binder": "ΔN-GILZ, GILZ lacking the N-terminal region (first 8 amino acids of mGILZ fused with the residues 73-137), in vitro 35S-labeled (other, [35S]-Methionine label ; [35S]-methionine isotopic label from in vitro translation; letters unchanged, also called DN-GILZ; 35S-ΔN-GILZ) MNTEMYQTVEVLKEQIRELLEKNSQLERENTLLKTLASPEQLEKFQSRLSPEEPAPEAPETPETPEAPGGSAV", "values": [{"measurement": "binding result", "setting": "[2]", "value": "no binding"}]}, {"binder": "Glutathione S-transferase GILZ fusion protein (GST-GILZ), containing entire mouse GILZ (other, UniProt Q9Z2S7 1-137, looked up, range 1-137; Immobilised on glutathione Sepharose beads; Prepared as in Ayroldi E et al., 2001; not shown: Glutathione S-transferase (GST) encoded by the pGEX-4T2 plasmid (Pharmacia)) MNTEMYQTPMEVAVYQLHNFSISFFSSLLGGDVVSVKLDNSASGASVVALDNKIEQAMDLVKNHLMYAVREEVEVLKEQIRELLEKNSQLERENTLLKTLASPEQLEKFQSRLSPEEPAPEAPETPETPEAPGGSAV", "values": [{"measurement": "binding result", "setting": "[3]", "value": "no binding"}, {"measurement": "binding result", "setting": "[4]", "value": "no binding"}, {"measurement": "binding result", "setting": "[5]", "value": "no binding"}]}, {"binder": "in vitro 35S-labeled full GILZ (full-length mouse GILZ, in vitro translated) (other, UniProt Q9Z2S7 1-137, looked up, [35S]-Methionine label, range 1-137; also called 35S-GILZ; GILZ full-length protein) MNTEMYQTPMEVAVYQLHNFSISFFSSLLGGDVVSVKLDNSASGASVVALDNKIEQAMDLVKNHLMYAVREEVEVLKEQIRELLEKNSQLERENTLLKTLASPEQLEKFQSRLSPEEPAPEAPETPETPEAPGGSAV", "values": [{"measurement": "binding result", "setting": "[1]", "value": "no binding"}]}, {"binder": "GILZ, endogenous, in whole cell lysates of murine thymocytes (DEX-treated or untreated) (other, mouse, UniProt Q9Z2S7 1-137, looked up, also called mGILZ) MNTEMYQTPMEVAVYQLHNFSISFFSSLLGGDVVSVKLDNSASGASVVALDNKIEQAMDLVKNHLMYAVREEVEVLKEQIRELLEKNSQLERENTLLKTLASPEQLEKFQSRLSPEEPAPEAPETPETPEAPGGSAV", "values": [{"measurement": "binding result", "setting": "[6]", "value": "no binding"}]}]}
